From the nanobody polyreactivity screen of Harvey et al. (2022)

assay: yeast display, Sf9 membrane polyspecificity reagent, FACS + sequencing; frameworks hold sequencing errors
Procedure, shortened: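 Galactose induction of a Saccharomyces cerevisiae BJ5465 synthetic nanobody display library ran 36–48 hours. The cells were then stained for 1 hour at 4 °C with 10% biotinylated, detergent-solubilized Sf9 membrane reagent, pulled down on streptavidin microbeads and FACS-sorted into low and high (top ~1%) gates on expression and reagent-binding fluorescence. Labels for polyreactivity follow the gate of origin.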

Sequence | polyreactivity (PSR sort gate)
QVQLVESGGGLVQAGGTLRLSCAASGSTFPKYGMGWYRQAPGKEREFVARINWNGGGTYYADSVKGRFTISRDNAKNTVYLHMNSLKPEDTAVYYCNARKRGARFILGYDYWGQGTQVTVSS | low polyreactivity
QVQLVESGGGLVQAGGSLRLSCAASGFTFDDYAMGWYRQAPGKERELVAAIDDDSSTNYADSVKGRFTISRDNAKNTVYLQMNSLKPEDTAVYYCNARARVSGKWYNYWGQGTQVTVSS | high polyreactivity
QVQLVESGGGLVQAGGSLRLSCASSGSIFYPYAMGWYRPAPGKERELVAAISSGGTTYYADSVKGRFTISRDNAKNTVYLQMNSLKPEDTAVYYCAAGFYLRAVWMDYWGQGTQVTVSS | high polyreactivity
QVQLEESGGGLVQAGGSLRLSCAASGRTFNRYVMGWYRQAPGKERELVAAITWRGGSTYYADSVKGRFTISRDNAKTSVYLQMNSLKPEDTAVYYCAARYSGGYSVDAFDYWGQGTQVTVSS | high polyreactivity
QVQLVESGGGLVQAGGSLRLSCAASGITFVWNAMGWYRQAPGKERELVATISRGGVRTYYADSVKGRFTISRDNAKNTVYLQMNSLKPEDTAVYYCNVDETGVLVAYSFDYWGQGTQVTVSS | low polyreactivity
QVQLVESGGGLVQAGGSLRLSCAASGSIFAYAMGWYRQAPGKERELVAGISSSGGRTYYADSVKGRFTISRDNAKNTVYLQMNRLKPEDTAVYYCAAKRWGLYKGYNCGQGTQVTVSS | high polyreactivity
QVQLVESGGGLVQAGGSLRLSCAASGFTFAGYAMGWNRQAPGKERELVAASNRGGSTYYADSVKGRFTSSRDNAKHTVYLQRNSLKPEDTAVYYCAKAQRFYGGRMGYWGQGTQVTVSS | low polyreactivity
QVQLVESGGGLVQAGGSLRLSCAASGRIFQGNAMGWYRQAPGKERELVAAIDWSGGGSTYADSVKGRFTISRDNAKNTVYLQMNSLKPEDTAVYYCARDVVWGEDYWGQGTQVTVSS | low polyreactivity
QVQLVESGGGLVQAGGSLRLSCAASGSTFAPNTMGWYRQAPGKERELVARITSSDGSTTYADSVKGRFTISRDNAKNTVYLQRNSLKPEDTAVYYCAADYGRRWGYDYWGQGTQVTVSS | low polyreactivity
QVQLVESGGGLVQAGGSLRLSCAASGYTYEYYAMGWYRQAPGKERELVAAISWSGGDTYYADSVKGRFTISRDNAKNTVYIQMNSLKPEDTAVYYCNAVLYTYYYYANWYGAYDYWGQGTQVTVCS | low polyreactivity
QVQLVESGGGLVQAGGSLRLSCAATGSIFDYNAMGWYTQAPGKERELVAALTSGGSTNYADSVKGRFTISRDNAMNTVYLQMNSLKPEDTAVYYCAADHDYYPSNLDYWGQGTQVTVSS | low polyreactivity
QVQLVESGGGLVQAGGSLRLSCAASGSTFATNAMGWYRQAPGKERELVATISSDGSTNYADSVKGRFTISRDNAKNTVYLQMNSLKPEDTAVYYCATEVTYPWHVDEGDYWGQGTQVTVSS | low polyreactivity
QVQLVESGGGIVQAGGSLRLSCAASGRTFKRYAMGWYRPAPGKERELVAAITRSGGSTYYADSVKGRFTISRDNAKNTVYLQMNSLKPEDTAVYYCATRSYNNELEYWGQGTQVTVSS | high polyreactivity
QVQLVESGGGLVQAGCSLRLSCASSGSTFEYYAKGRYRQAPGKERELGAAINGIGGSTTYADSVKGRFTISRDNAKNNVYFQMNSLKPEDTAVYYCNADVARSNSQASAYDYWGQGTQVTVSS | low polyreactivity
QVQLVESGGGLVQAGGSLRLSCAASGRNFGYYVMGWYRQAPGKERELVAAIRSSADSTYYADSVKGRFTISRDNAKNTVYLQMNSLKPEDTAVYYCAAQSPAYYTKCYWGQGTQVTVSS | low polyreactivity
QVQLVESGGGLVQAGGSLRLSCAASGFSFSYYAMGWYRQAPGKERELVAAINYSGTSTYYADSVKGRFTISRDNAKNTVYLQMKSLKPEDTAVYYCAADLPYYPYLYDYWGQGTQVTVSS | low polyreactivity
QFQLVESGGGLVQAGGSLRLSCAASGRTLYGYAMGWYRQAPGKERELVAVISGRGGSTYYADSVKGRFTISRDNAKNTVYLQMNSLKPEDTAAYFCAAVVHQGLSVRYGYWGQGTQVTVSS | high polyreactivity
QVQLVESGGGLVQAGGSLRLSCDASGRTFRYYAMGWYRQAPGKEREMVAAITRSGGSTYYADSVKGRFTISRDNAKNTVYLQMNSLKAVDTAVYYCAESRFYSYGIDYDYWGQGTQVTVSS | high polyreactivity
QVQLVESGGGLVQAGGGLRLSCAASGRIFFYAMGWYRQAPGKQRELVAAISWSGGSTYYADSVKGRFTISRDNAKNTVYLQMNSLKPEDTAVYYCAADYEGWGYDYRGDYWGQGTQLTVSS | low polyreactivity
QVQLVESGGGLVQAGGSLRLSCAASGRIFSENAMGWYRQAPGKERELVAAITGNGGDTYYADSVKGRFTISRDNAKNTVYLQMNSLKPEDTAVYYCAAETGGLGGDYWGQGTQVTVSS | low polyreactivity
QVQLVESGGGLVQAGGSLRLSCAASGYIFKSNVMGWYRQAPGKERELVAAITTDGSTYYADSVKGRFTISRDNAKNTVYLQMNSLKPEDTAVYYCAAGKAYWYARKPYARYYYWGQGTQVTVSS | high polyreactivity

Sequence | polyreactivity (PSR sort gate)
QVQLVESGGGLDQAGGSLRLSCAASGSTFSGYAMGWYRQAPGKERELVATITRRGGNTYYADSVKGRFTISRDNAKNTVYLQMNSLKPEDTAVYYCAKDGRVHSPYDYWGQGTQVTVSS | low polyreactivity
QVQLVESGGGLIQAGGSLRLSCAASGSILSDYVMAWYRQAPGKERELVAAITNDDSTNYADSVKGRFTISRDNAKNTVYLQMNSLKPEETAVYYCAAEWLVVYYISTGESYKVEFDYCGQGTQVTVSS | low polyreactivity
QVQHEESRGGLVQAGGSLRLSCAASVRTFSVNAMGRYRQAPGKEREFVAVISSNGGSTYYADSVKGRFTISLDNAKNTVYLQMNSLKPEDTAVYYCNARYWRGWGGRVSKYGYWGHGTQVTVSS | high polyreactivity
QVQLVESGGGLVQAGGSLRLSCAASGFIFYRYTMGCYRQAPGKERELVAGISSRGTRTYYADSVKGRFTISRDNAKNTVYLQMNSLKPEDTAVYYCAKVDGSKRYNYWGQGTQVTVSS | high polyreactivity
QVQLVESGGGLVQAGGSLRLSCAASGGTFLYYAMGWYRQAPGKERELVAAISRGGSTHYADSVKGRFTISRDNAKNTVYLQMNSLKPEDTAVYYCAADRSHRKRINFYDYWGQGTQVTVSS | low polyreactivity
QVQLVESGGGLVQAGGSLRLTCAASGFTFVINDMGWYRQAPGKERELVADITSGGDTYYADSVKGRFTISRDNAKNTVNFQMYSLKPEDTAVYYCAADIYPDWIYLLYGYWGQGTQVTVSS | low polyreactivity
QVQLVESGGGLVQAGGSLRLSCAASDLQILCYGWYRQPPGKERELFASITRGDGSTYYADSVKGRFTISRDNAKNTVFIQMNSLKPEDTAVYYCADYNDWRDELYDYWGQGTQVTVSS | low polyreactivity
QVQLVESGGGLVQAGGSLRLSCAASGSTFSPYDMGWYRQAPGKERELVAAITYRGGSTYYADSVKGRFTISRDNAKNTVYLQMNSLKPEDTAVYYCAAEIYQYSYGGTGWTLDWGQGTQVTVSS | low polyreactivity
QVQLVESGGGVVQAGGSLRLSCAASGFTFWRYAMGWSRQAPGKDRELVAVITWSGTRTYYADSVKGRFTLSRDTAKITVYVQMNSLNPDAPAVYYCAAYITDVAGRAYDYWGQGTQVTVSS | high polyreactivity
QVQLVESGGGLVQAGGSLRLSCAASGSTFAYNAMGWYIQAPGKERELVAAISWGDGITYYADSVKGRFSISRDYAKNTVYLQINILKPEDTAVITRDFGYWGQGTQVTVSS | low polyreactivity
QVQLVESGGGLVQAGGSLRLSCAASGRTFTYNAMGWYRQAPGKERELVAAISRSGGRTYYADSVKGRFTISRDNAKNTVYLQMNSLKPEDTAVYYCNTDGYYTTAKYGYWGQGTQVTVSS | high polyreactivity
QVQLVESGGGLVQARGSLRLSCAASRLIFTWYAMRWSRHAPGKERELVAAISWSDDSTNYADSVKGRFTISRDNAKNTVYLLMNSLKPEDTAVYYCATQLDYGGRVGDADDYWGQGTQVTVSS | low polyreactivity
QVQLVESGGGLVQAGGSLRLSCAASGIIFVSYAMGWYRQAPGKEWELVADISSGGRTYYADSVKGRFTISRDNAKNTVYLPMNSLKPEDTAVYYCAKVKRDLQYPGLPEVLNREYWGQGTQVTVSS | high polyreactivity
QVQLVESGGGLVQAGGSLRLSCAASGSTFPEYAMGWYRQAPGKERELVATISWSGGSTDYADSVKGRITISRDNAKNTVYLQMNSLKPEDTAVYYCNKELIPHFDTRESWGQGTQVSVSS | low polyreactivity
QVQLVESGGGLVQAGGSLRLSCAASGYIFSANAMGWYRQAPGKEREFVAAISSTGGSTYYADSVKGRFTISRDNAKNTVYLQMNSLKPEDTAVYYCAAYIRRYFHYDYWGQGTQVTVSS | high polyreactivity
QVQLVESGGGLVQAGGSLRLSCAASGRTFFVNAMGWYRQAPGKERELVATITFSGDSTYYADSVKGRFSISRDNAKNTVYLQMNSLKPEDTAVYYCAAYQGQKGYDYWGQGTQVTVSS | high polyreactivity
QVQLVESGGGLVQEGGSLRLSCAASGRTSNINAMGWYRQAPGKERELVAAINSDGSTYYAYSVKGRFTISRDNAKNTVYLQMNSLKPEDTAVYYCAAVSLFRDSQFDYWGQGTQVTVSS | low polyreactivity
QVQLVESGGGLVQAGGSLRLSCAASGLTLPYNAMGSYRQAPGKERELVAAITCIGGSTYYADSVKGRFTISRDNAKNTVYLEMNSLKPEDSAVYYCAKEVRGPIIYLEGYWGQGTQVTVSS | low polyreactivity
QVQLVESGGGLVQAGGSLRLSCAASGFTFDYNAMGWYRQAPGKDRELVAVISSSGSRTYYADSVKGRFTISRDNAKNTVYLQMNSLKPEDTAVYYCNSGRTYRRLGDYWGQGTQVTVSS | high polyreactivity
QVQLVESGGGLVQAGGSLRLSCAASGITFVRNAMGWYRQAPGKEREFVAAISGSGVSTYADSVKGRFTISRDNAKNTVDEQMISLKPEDTAVYYCARDFPWSYAWYDYWGQGTLVTVSS | low polyreactivity
